Changes are numbered by the printed parent chain.
B1: fusion protein 217781 (designed binder, not shown: small tags and cut ends)
chain (part 1 of 2): not shown
chain (part 2 of 2): LAEAKVLALKELDKYGISNYYKNLINNAKTIEGVKALKEAIVAA
notes: also called CID 217781
B2: fusion protein 217787 (designed binder, not shown: small tags and cut ends)
chain (part 1 of 2): not shown
chain (part 2 of 2): LAEAKVLALKELDKYGISDFYKRLIDKAKTIEGVEALKDAILAA
notes: also called CID 217787
B3: fusion protein 218466 (designed binder, not shown: small tags and cut ends)
chain (part 1 of 2): not shown
chain (part 2 of 2): B1 chain (part 2 of 2) with E39D, A40E
notes: also called CID 218466
B4: fusion protein 218513 (designed binder, not shown: small tags and cut ends)
chain (part 1 of 2): not shown
chain (part 2 of 2): B1 chain (part 2 of 2) with I31V, K35E, V42L
notes: also called CID 218513
B5: fusion protein 218514 (designed binder, not shown: small tags and cut ends)
chain (part 1 of 2): not shown
chain (part 2 of 2): B1 chain (part 2 of 2) with K35E, E39D, V42L
notes: also called CID 218514
B6: fusion protein 218512 (designed binder, not shown: small tags and cut ends)
chain (part 1 of 2): not shown
chain (part 2 of 2): B1 chain (part 2 of 2) with I31V
notes: also called CID 218512
B7: fusion protein 218467 (designed binder, not shown: small tags and cut ends)
chain (part 1 of 2): not shown
chain (part 2 of 2): LAEAKVLAIKELDKAGISNYYFNLINNAKTVEGVKDLKAQIVAA
notes: also called CID 218467

These binders were tested against T1, Her2 (immobilised on the SPR chip) (human, UniProt P04626 23-652, limits assumed) (assay: SPR, Her2 immobilised on the chip, pH 7.3, 1:1 Langmuir fit [continued]).
T1 construct: construct not described; also called human epidermal growth factor receptor 2
Protocol: (§1) Recombinant protein A, HSA, MSA or target (either ED-B or Her2) was immobilized on a High Capacity Amine sensor chip (Bruker) after NHS/EDC activation with a Sierra SPR-32 system (Bruker). The chip was equilibrated with SPR running buffer (PBS 0.05%, Tween pH 7.3). Injection of ethanolamine after target immobilization was used to block free NHS groups. To determine the binding of fusion proteins to FAP, the Fc-tagged target was injected with 60 or 30 nM to Protein A coupled spots followed by the injection of fusion proteins.
(§2) Binding proteins were applied to the chip in serial dilutions with a flow rate of 30 μl/min. Upon binding, analyte accumulated on the surface increasing the refractive index. This change in the refractive index was measured in real time and plotted as response or resonance units versus time. The association was performed for 120 seconds and the dissociation for 180 seconds. After each run, the chip surface was regenerated with 30 μl regeneration buffer (10 mM glycine pH 2.0 or pH 1.5) and equilibrated with running buffer. Binding studies were carried out using the Sierra SPR-32 system (Bruker); data evaluation was operated via the Sierra Analyser software, provided by the manufacturer, by the use of the Langmuir 1:1 model (RI=0).
For B1, the Kd was 4.1 nM.
B2 showed a Kd of 7.3 nM.
B3 was tested, and the Kd was 4.4 nM.
B4 gave a Kd of 3.3 nM.
B5 was tested, and the Kd was 3.3 nM.
B6 was tested, and the Kd was 2.7 nM.

What follows are binders tested against T2, Her2-Fc (human, UniProt P04626 23-652) (assay: ELISA on coated Her2-Fc; after 24 h in human serum at 37 C).
T2 construct: Coated in ELISA
Protocol: (§3) High binding plates (Greiner, 781061) were immobilized with 2.5 μg/ml hFAP-Fc or 1.2 μg/ml Her2-Fc over night at 4° C. Dilution series of 3 μM to 0.07 pM of fusion proteins with binding specifically to Her2 were incubated in 100% human serum or 100% mouse serum for 24 h at 37° C. Dilution series of 3 µM to 0.2 pM or 1 μM to 0.01 fM of fusion proteins with binding specifically to hFAP were incubated in 100% human serum or 100% mouse serum for 24 h at 37° C. ELISA-plates were washed three times with PBST (PBS+0.1% Tween) and blocked with 3% BSA/0.5% Tween/PBS up to 2 h at room temperature (rt). After preincubation for 0 h or 24 h in the presence of serum the dilution series were incubated on ELISA-plates for up to 1 h at rt. Wells were washed with PBST and incubated with biotinylated anti-ubiquitin-antibody (1:300) for up to 1 h at rt. The binding was visualized with Streptavidin-HRP (1:5.000).
(§4) The fusion proteins comprise the albumin binding domain (referred to as HED) and the targeting moiety.
For B1, the “max binding after 24 h [%]” value was 94.1%.
For B2, the “max binding after 24 h [%]” value was 96.2%.
In the case of B3, the “max binding after 24 h [%]” value is reported as 95.1%.
For B4, the “max binding after 24 h [%]” value was 100%.
With B5 the “max binding after 24 h [%]” value was 96.4%.
B7 was tested, and the “max binding after 24 h [%]” value was 99%.
In the case of B6, the “max binding after 24 h [%]” value is reported as 100%.

What follows are binders tested against T3, human serum albumin (human, UniProt P02768 25-609) (assay: SPR, HSA immobilised on the chip, pH 7.3, 1:1 Langmuir fit [continued]).
T3 construct: also called HSA
T3 sequence (P02768 25-609 limits assumed): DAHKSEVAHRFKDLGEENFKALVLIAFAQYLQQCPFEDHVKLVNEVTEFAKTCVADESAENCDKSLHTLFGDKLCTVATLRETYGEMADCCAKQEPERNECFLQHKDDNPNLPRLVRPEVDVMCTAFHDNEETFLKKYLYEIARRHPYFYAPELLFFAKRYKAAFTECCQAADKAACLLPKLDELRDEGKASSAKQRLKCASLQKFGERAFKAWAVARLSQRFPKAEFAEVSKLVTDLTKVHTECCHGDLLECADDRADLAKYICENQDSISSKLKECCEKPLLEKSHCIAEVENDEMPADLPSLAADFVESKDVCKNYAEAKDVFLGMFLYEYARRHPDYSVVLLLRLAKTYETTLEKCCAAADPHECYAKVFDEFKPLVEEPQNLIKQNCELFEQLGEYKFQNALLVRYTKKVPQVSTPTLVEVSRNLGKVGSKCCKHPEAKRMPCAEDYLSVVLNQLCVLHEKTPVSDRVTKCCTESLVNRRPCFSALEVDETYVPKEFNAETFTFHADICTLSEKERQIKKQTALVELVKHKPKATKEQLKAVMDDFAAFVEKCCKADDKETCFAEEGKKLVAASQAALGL
Protocol: as §1, §2
B1 was tested, and the Kd was 2.9 nM.
In the case of B2, the Kd is reported as 0.6 nM.
B3 was tested, and the Kd was 6.3 nM.
B4 gave a Kd of 1.9 nM.
B5 gave a Kd of 1.8 nM.
With B6 the Kd was 1.8 nM.

These binders were tested against T4, Her2 expressed on Sk-Br-3 cells (human, UniProt P04626 23-1255) (assay: flow cytometry, dilution series on Sk-Br-3 cells).
T4 construct: whole, on cells; also called human epidermal growth factor receptor 2
Protocol: Her2 expressing Sk-Br-3-cells and HEK293-hFAP overexpressing cells were thawed, washed with medium containing FCS, subsequently washed with FACS blocking buffer (PBS/0.1% Sodium Azide/3% FCS) and 100 μl seeded in 96-well round bottom plates with a density of 1×10⁶ cells/ml. Dilution series from 10 µM to 8.6 fM (CID 217781, CID 217787) and a dilution series of 3 µM to 0.2 μM (CID 218466, CID 218467, 218512, CID 218513, CID 218514, CID 218515, CID 218516) were incubated on Her2-expressing Sk-Br-3-cells and dilution series from 1 μM to 0.07 μM of fusion proteins 218690 and 218702 were incubated on hFAP-overexpressing HEK293-cell line for 45 min at 4° C. After centrifugation the supernatants were removed and cells were washed with FACS blocking buffer and 100 μl/well rabbit anti-Strep-Tag antibody (GenScript; A00626), 1:300 diluted in FACS blocking buffer were added. After removal of the primary antibody goat anti-rabbit IgG Alexa Fluor 488 antibody (Invitrogen; A4008) was applied in a 1:1000 dilution in FACS blocking buffer. Flow cytometry measurement was conducted on the Guava easyCyte 5HT device from Merck-Millipore at excitation wavelength 488 nm and emission wavelength 525/30 nm. The * in table 2 refers to a fusion protein with the albumin binding domain as dimer (homo-dimer) and/or the targeting moiety as dimer.
For B1, the Kd was 2.05 nM.
For B2, the Kd was 2.17 nM.
B3 was tested, and the Kd was 2.69 nM.
With B4 the Kd was 2.48 nM.
In the case of B5, the Kd is reported as 2.19 nM.
Work on B7 yielded a Kd of 3.81 nM.
For B6, the Kd was 1.72 nM.

These binders were tested against T2, Her2-Fc (assay: ELISA on coated Her2-Fc; 0 h in mouse serum).
Protocol: as §3, §4
B1 gave a Kd of 0.36 nM.
Work on B2 yielded a Kd of 0.42 nM.
B3 showed a Kd of 0.21 nM.
B4 showed a Kd of 0.25 nM.
Work on B5 yielded a Kd of 0.21 nM.
For B7, the Kd was 0.17 nM.
In the case of B6, the Kd is reported as 0.2 nM.

The binders below were run against T2, Her2-Fc (assay: ELISA on coated Her2-Fc; 0 h in human serum).
Protocol: as §3, §4
B1 showed a Kd of 0.61 nM.
B2 showed a Kd of 0.84 nM.
In the case of B3, the Kd is reported as 0.34 nM.
Binder B4 has a Kd of 0.34 nM.
For B5, the Kd was 0.29 nM.
Binder B7 has a Kd of 0.34 nM.
With B6 the Kd was 0.23 nM.

These binders were tested against T2, Her2-Fc (assay: ELISA on coated Her2-Fc; 24 h in human serum at 37 C).
Protocol: as §3, §4
B1 was tested, and the Kd was 0.79 nM.
B2 was tested, and the Kd was 0.53 nM.
For B3, the Kd was 0.32 nM.
With B4 the Kd was 0.43 nM.
Binder B5 has a Kd of 0.3 nM.
B7 showed a Kd of 0.36 nM.
With B6 the Kd was 0.36 nM.

Each binder was assayed against T2, Her2-Fc (assay: ELISA on coated Her2-Fc; KD 24 h against KD 0 h, mouse serum).
Protocol: as §3, §4
B1 was tested, and the “increase of KD vs target [fold]” value was 1.72 fold.
With B2 the “increase of KD vs target [fold]” value was 1.43 fold.
In the case of B3, the “increase of KD vs target [fold]” value is reported as 1.14 fold.
B4 was tested, and the “increase of KD vs target [fold]” value was 1.23 fold.
B5 was tested, and the “increase of KD vs target [fold]” value was 1.19 fold.
For B7, the “increase of KD vs target [fold]” value was 1.2 fold.
For B6, the “increase of KD vs target [fold]” value was 1.2 fold.

What follows are binders tested against T2, Her2-Fc (assay: ELISA on coated Her2-Fc; after 24 h in mouse serum at 37 C).
Protocol: as §3, §4
With B1 the “max binding after 24 h [%]” value was 97.7%.
With B2 the “max binding after 24 h [%]” value was 100%.
In the case of B3, the “max binding after 24 h [%]” value is reported as 96.6%.
With B4 the “max binding after 24 h [%]” value was 106%.
B5 was tested, and the “max binding after 24 h [%]” value was 100%.
For B7, the “max binding after 24 h [%]” value was 104%.
With B6 the “max binding after 24 h [%]” value was 98.6%.

What follows are binders tested against T2, Her2-Fc (assay: ELISA on coated Her2-Fc; KD 24 h against KD 0 h, human serum).
Protocol: as §3, §4
With B1 the “increase of KD vs target [fold]” value was 1.29 fold.
B2 was tested, and the “increase of KD vs target [fold]” value was 0.63 fold.
With B3 the “increase of KD vs target [fold]” value was 0.93 fold.
With B4 the “increase of KD vs target [fold]” value was 1.27 fold.
In the case of B5, the “increase of KD vs target [fold]” value is reported as 1.06 fold.
With B7 the “increase of KD vs target [fold]” value was 1.05 fold.
In the case of B6, the “increase of KD vs target [fold]” value is reported as 1.58 fold.

These binders were tested against T2, Her2-Fc (assay: ELISA on coated Her2-Fc; 24 h in mouse serum at 37 C).
Protocol: as §3, §4
B1 gave a Kd of 0.63 nM.
Work on B2 yielded a Kd of 0.6 nM.
B3 was tested, and the Kd was 0.23 nM.
B4 showed a Kd of 0.31 nM.
Binder B5 has a Kd of 0.25 nM.
With B7 the Kd was 0.2 nM.
B6 gave a Kd of 0.24 nM.

From patent US20250388696A1 (NAVIGO PROTEINS, published 2025)
